Experiment: Dissolution test of peptide sample (pH raised stepwise with NaOH until dissolved)
Type: physicochemical
Procedure: For example, a simple dissolution test can be used to evaluate the solubility characteristics of a peptide sample. The test is conveniently carried out at a temperature in the range of from about 20° C. to about 27° C., preferably about 25° C. From about 0.1 to about 0.3 grams of peptide is combined with about 1 to about 3 ml of an aqueous medium. The medium may be deionized water. In the case of T-20 or T-1249, these peptides are mildly acidic. Consequently, the medium optionally may include some initial amount base, e.g., about 17 mM Na2CO3 or the like, to provide a suitable initial pH. […] The mixture is rapidly stirred for 5 to 10 minutes between additional increments. Solids adhering to the sides of the testing vessel should be re-suspended. Rapid mixing should be maintained throughout. Results include observations regarding the clarity of the mixture, time required for dissolution, concentration and amount of caustic used, final pH upon dissolution (if this occurs below pH 9), and the like.
For purposes of the invention, peptides such as T-20, T-1249, and GLP-1, as well as counterparts of these, may be deemed to be in a more desired, deaggregated form if dissolution in accordance with this test occurs at a pH of less than about 8, preferably less than about 7.5. If dissolution occurs at a pH of greater than about 7.5, more preferably greater than about 8, the peptide is deemed to be in a less desired aggregated form. This helps to ensure the practicality of handling the peptide during subsequent processing and handling.

[1] = precipitated with 18% by volume acetonitrile

What does the source list for “Acetyl-WQEWEQKITALLEQAQIQQE KNEYELQKLDKWASLWEWF-NH2 (Ac-WQEWEQKITALLEQAQIQQEKNEYELQKLDKWASLWEWF-NH2) [Sample T-1249, ID NO; 20]”?
Dissolution behavior (precipitated with 14% by volume acetonitrile): dissolved to some degree at a pH of 6.95 but not completely; Dissolution time [1]: 1 h; Final pH at dissolution [1]: 6.69; Turbidity in words [1]: only very faint turbidity; Dissolution pH (precipitated with 20 to 22 volume percent acetonitrile): around 9; Dissolution behavior (precipitated with no co-solvent): dissolved very slowly with high turbidity even after 14 to 18 hours and even at a pH of 8

— patent US20060167220A1, “Methods and compositions for preparing peptides with excellent solubility characteristics in aqueous solution at physiological pH” (priority 2004, published 2006)
